The source of these data is JP2004000228A.

The experiment concerns the target anti-Fas monoclonal antibody HFE7A produced by mouse-mouse hybridoma HFE7A (FERM BP-5828). The experiment is described as follows: peptide competition: 200 μg peptide preincubated with 0.25 μg HFE7A, then flow cytometry on WR19L12a cells.

As for EINCTRTQNT [P100], the inhibition of the binding of HFE7A to WR19L12a cells worked out at 50%.
As to KCRCKPNFFC [P110], the inhibition of the binding of HFE7A to WR19L12a cells is 60%.
